Results: patent US20190134196A1 (GMAX BIOPHARM, published 2019)

T1: human endothelin A receptor (human, UniProt P25101 21-427)
T1 construct: For the calcium flux assay it was co-expressed with aequorin in CHO-DHFR cells; also called hETAR; human ETAR
T1 sequence: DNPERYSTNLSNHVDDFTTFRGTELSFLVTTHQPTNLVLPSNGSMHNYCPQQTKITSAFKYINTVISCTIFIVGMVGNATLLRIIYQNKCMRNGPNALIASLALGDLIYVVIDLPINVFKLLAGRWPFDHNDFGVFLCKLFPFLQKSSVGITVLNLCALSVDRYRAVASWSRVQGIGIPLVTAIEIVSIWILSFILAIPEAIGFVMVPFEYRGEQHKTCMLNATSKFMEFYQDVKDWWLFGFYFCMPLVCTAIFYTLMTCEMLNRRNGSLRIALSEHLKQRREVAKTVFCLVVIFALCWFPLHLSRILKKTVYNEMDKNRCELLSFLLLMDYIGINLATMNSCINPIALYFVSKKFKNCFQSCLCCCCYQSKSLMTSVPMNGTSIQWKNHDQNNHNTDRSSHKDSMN

B1: ETAR antibody A-12 (antibody, V domains shown)
VH: EVKLVESGGRLVQPGNSLRLSCATSGFTFSDYYMSWVRQTPGRALEWLSFIRNRANGYTTEYSASVKGRFTISRDNSQSILYLHMSTLRPEDSATYYCVRDSYHYGYFDVWGAGTTVTVSS
VL: EIQMTQTPSSLSASLGDRVTITCSASQGINNYLNWYQQKPGGKTRLLIYYTSTLQSGVPSRFSGSGSGTHYSLTISNLEPEDIATYYCQQFSKLRTFGGGTRLEIKR
notes: Recombinant antibody; also called L12H12
B2: ETAR antibody A-9 (antibody, V domains shown)
VH: EVQLQQPGGGLVQPGGSLTLSCATSGFTFSSYGMSWVRQTPAKRLELVATISTNGATANYPDSVKGRFTISRDNAKSTLYLQMRSLKSEDTAMYYCATEKGAMGYWGQGTSVTVSS
VL: DVLMTQTPLSLPVSLGDQASISCRSSQNIVHSTGNTYLEWYLQKPGQSPKLLIYKVSNRFSGVPNRFRGSGSGTDFTLKITRVEAEDLGIYYCFQGSHFPFTFGSGTKLEIKR
B3: ETAR antibody A-7 (antibody, V domains shown)
VH: EVHLVESGGGLVQPGGSLKLSCAASGFTFSTYGMSWVRQTPDKRLELVATINTNGGTTYYRDSVKGRFTISRDNAKNTLYLQMSSLKSDDTAMYYCARDYGAMDYWGQGTSVTVSS
VL: DVLMTQTPLSLPVSLGDHASISCRSSQYIVHSTGTTYLEWYLQKPGQSPQLLIYKVSNRFSGVPDRFTGSGSGTDFTLRISRVEAEDLGVYFCFQGSHFPFTFGSGTKLEIKR
notes: Recombinant antibody; also called L7H7
B4: ETAR antibody A-2 (antibody, V domains shown)
VH: QIQLVQSGAELAKPGASVRMSCETSGYTFTSYWIHWIKERPGQGLEWIGYINPDTDYSEYNQKFKDKARLTADKSSTTAYMELNSLTFDDSAVYYCASAGYYFFDFWGQGTTLTVSS
VL: DIQMTQSPASLSTSVGETVTITCRASENIYSYLAWYQQRQGKSPHLLVNNAKTLAEGVPSRFSGSGSGTHFSLRISGLQPEDFGSYYCQHHYGIPFTFGGGTKLSIKR
notes: Recombinant antibody; also called L2H2

Key:
[1] = molecular target: T1, human endothelin A receptor; experiment: FACS on CHO-DHFR-ETAR cells, CHO-DHFR- cells as negative control
[2] = molecular target: T1, human endothelin A receptor; experiment: cell-based or functional assay

| Binder | binding result [1] | IC50, calcium flux assay (inhibition of human ETAR) [2] [nM] |
| --- | --- | --- |
| B1 | binds | – |
| B2 | – | 87.8 |
| B3 | binds | – |
| B4 | binds | – |
